According to the supplement of paper PMC12636428:

System: Saccharomyces cerevisiae
Assay: transcriptional activation domain activity (GFP:mCherry ratio, weighted mean of sorted bins, harmonized to initial dataset scale) (arbitrary fluorescence ratio units); higher = stronger transcriptional activation
Conditions: beta-estradiol 1 µM; induction time 4 h
Outline: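 Yeast diploids with a GFP reporter received barcoded protein tiles, fused to an estradiol-inducible synthetic transcription factor, at the URA3 locus. Cultures were diluted 1:5 into SC holding 1 uM beta-estradiol, incubated 4 hours at 30 °C, sorted into 8 bins on GFP:mCherry ratio, and sequenced for barcodes, with tiles under 50 reads discarded. Activation activity values come from the read-weighted mean of bin median fluorescence, averaged across barcodes and linearly placed on the initial dataset scale.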

Sequence	transcriptional activation domain activity
RQESSPRLPSPSHTQQRERNQTPCAARSSSSSPRRPRPQPQPSTSAPSSPASP	29400
STKVLLRVFIPVAGYFWISLNYSLVSLAFHVKFNNYFGNIGFFIWWMLNWLTM	57300
GPRDVFGIRSAWKLPLSVAYWLLVCLARRKDFGSLRAVTVGHITWNQYMVGER	58600
MVKGRGRGGQVLFLFLFLLLFFLFLFLSLFLFILFFLALFFWTFFVLFCFVWG	66200
LIPTEGGELALGGAPLEDEDESTSDEEETPKASFQARLERLRKRMDGRPIKDI	26300
IYAYRESWGIDGAVFCKSWMLYWLLMDIHWQVMETLIACYIPMQFSPFFVFPW	61700
AASAASEPAPKKRGRPARAKEEVVAAEPEPAVEQPKKGRGRGRKAAEPEPVAV	18700
EMIMGFFFKNIVWTLTLFWYQIFCQFNGSMMFDYALVTLFNLVFTSLPIMCMG	52100
RILATQFFYVAAFTFLVFHSAFRAARITLPLYQHPLRIAIPVTLTQMGLHATA	64600
SALFCKIWTIIQAYYIVISFISIHNCMPCTMPFHHECVGSIPLWLWVTWLPSI	40400
AEEEQKKPKGKKAAAASKPKKSSDDEPAPGKSKPAARTGSIKGKSTGTKAGAQ	22300
YIAPCGTWTPYMNLFLGSTVCIFIGFDVFAPFSYRGLITNYFGLLWFCFMFLF	78400
PFPLLPFPLLPFPLLPSPLPIPLLPIPLLSFPLLPFPFLPFPLLSYPLFHFTV	44800
LVLRSPAILTLEEEEDVAANLSQYSVQCSEVDKFLLTYVILKLKLVKGKCLIF	72300
FYTLIVEEDQSLWLCLKWCFFDMLFMFGIPLLEIPWLEWSNGAAFLLFVLHAG	63300
KIHLVNLGQISVFFIHRFLFGLIPLFEITTCAFFPLLISLWHIDYLLFYTVMF	39800
MALFLSIFLLFFFLLYLSQITHFHGILFCFFLLCAPCLYIPDSCNPLIQPLFP	35300
EDDDERRRKESSSSSRRKDRDRDDDGHERKDRKDRKHGSHRDRETDREREKRK	33000
DSHHHDELGSEITLADNKFSYLPPTLEELMEEQDCNNGRSFKNFMFSNDTGID	54500
SFHAFFFLYLPCCLFFYFCIVLVLVLVGYWCLVFFFIVFGSFPPPLLSKYLHL	46200
SVVKFIEEYQAYFNTSYEVFLLLYISFILVTTLWCTSLIIYRILTVHLIEVLV	29800

Sequence	transcriptional activation domain activity
DDNAGDGSLSSVVKVWLEGLTPSGRVEIFGRRNPPPVVRFLLLLVVSRRIGSL	58600
QPSAFGQTNTATNAFGQPQQQSAFGSTPTTGAFGSTNTAFGQNRPAFGSTTTP	23600
IALCEAVYIWLAKQLYQEFGWKIYKKIGADLIKRRMYRDYHICLMLLKLDLFF	64200
MMPRGSYLAFFLLLLFYSFLSLFTPLNFVFLFFLSPLLRLHTLFYLLYFFGLA	42100
SGGGRRRDGGGRRAGGRRDGAGGGRGRGDRGGGGGGGGERGERGGRPKKTQEE	50900
SHFLPLLLFLSLSFILFSFPFILPFSLISLFSYFFLPFLHISTLFHSYFSFLL	47400
HLFFLKNHHCFLSFIFFLFLFTLFFYFIFFLKLQFRKNNNYLFFLYKKFLTFF	36800
CLMVVFLIVQLLVITVARRCRKTDARFVLERVFLKTHLGLYVFCLLITNFASG	50200
EADEEAAKAEHVHAPGEGGEGEGGGGPRRLEGKEGEREQKEIERQKKAEKDEK	44400
LYFMPVRWYTYHKIGFHYFLADLCYFVNFLMVLCIWFFPNSKRLFISTFCLAF	72000
CVCRMILAPLLHLFISFFLLCMAAVASPPLRWILWYYWGCFTVQEVNWHMLRF	45500
VILLPLSFSLWYCLLFAYGILVSLYLLTLKNPTEINFLGFYIWKYENAFWVLM	60100
SMLKIARQSPRGIRDSKGGEGFLLLESGDQSTNIVTVVRIKLLMEKLYTLPEL	32200
GGPARRMKPGAPDARREEGGKKKRGATNDTGAAKEKAPAKGRKGKKKPAEESE	44500
MWWAFIFFFLLSFFLFLLFLGWLAGWQVCCWGFWFLVGFHFGWLGWFGCGITS	32000
QFARFTLEETNLMWKRAANPELTPLTSFPPLWVATRLRLFYVINSILSYFMTT	60800
MRYRPSEDLGKKLLLLFIYILFRGKLVVNPFHFFSSFLSFFFFFFFVFFALLL	35900
MGGGVWEPVLDVWLFSFFFSLYTSFFIGFGSLSFFPSYLVCFFFISFPPHFLL	53400
CKSFITVLMDLPHFTTSCVWVFFFSSFCFLWENASLLYRRLILSFFSFSFLFP	66000
GIVLLLNAWKGQKIGFVSKDLNLVYSCIRIANEAEERHIAAGRYVDFMNLLLH	45500
PSGSPLTPSSGKGGRSASLGDAESNKTGEPYGPHSGKAYFEVCVNVGKHAIRL	37500

Sequence	transcriptional activation domain activity
ADCAVIGVVSEEEATELPRAYVVHAKGIPPSEHEAFGVSVQEWIKSRVARHKQ	53600
PDVEQMVLHFYLQLCYEFFDRCPTLFHASLGLINPSTSCCCGLLFLLFFVFLY	72800
GPEYEPGRPSEQEVSLTRMLDKVLRRSDAIDKESLCIIAGQRVWHIRLTIHCL	87900
KLEYVSLGRIEIVACFDKYTMASKGIHMLLGCCFSKIKFVCLSQADYQAAVLL	67100
RQRQQNGRAPRAPRAEKPTDGFEVKEGRGERRGRGEGRGEGRGRGRGGRGRGR	13000
SRSRKGRGRRRRGSKASRGSRSSRGSAASSANTSDSSSSSSSSDSDDSSSSSS	18200
MVMMIVCVCVLPCFVYVLWFLCRFFIYLFYYCVHAWPRWHREGGLFSLFFFFF	30000
MIIFFFFFFLLCHWINTGIIFHVLDLMVKFLFFIFVDQQKKLSLLLFIHFAWL	54700
ATAANEEGEEGEATPKKTPRKRAAKKQDVDGDASPKKKGRGKKVSDDETNVKS	< 6570
MKTINILTTPPLHIFFSTPIVYSLFLLLNFFPIFFFFFFFFLYSLPFFFFIVA	52100
KLIKHNKNVRTWWKKDDQFWVPRGHIHVYFRTPIIGITVRAQLTASLFINLVH	47300
ASDYAIGQFRYLKRLILVHGEWSYARNANMIVNFFYKNILGIGVLWWFQIYCG	39100
EKNKAEKKVKTPKSPKKEKKKEEPAAAAVEEPAKEEAAPAEAPAAPVEEPAKV	22800
LLYHYPMCSVCVLCCVLFFSHLFSIFHVLSVLCCTFFWQCLSFFHYLIPLFLY	62300
RAKADAILRELQDTFFPSAAFRAWLTIVTKLIPLSCAVEARRFRPGLDYTLAT	77700
ADSKTRNKRDGSNSTTSRSRSSRSRGEAVDDDGSSSSKRSSRSSRTDEGGAAR	41400
RSKVLRPFWLFLLALCYNLVHATALFYQVITLNVAVNSYSNALLTLLMSNQFV	53500
SSSSKKQNQSADGERKKPKKTDGAEKGESVRRKSDSGGKSVKSEEKTTKGIQK	28800
MLEGILGWSKWQKYSIKWYIWLPRLFFQSFFPFFSCPISLQKFSVLLFHFFFL	59700
FDTLLSFLLFSLSLIFFLSFLPLFCQRYFFSSFLNLVFLAFWLCCYCCCCSRG	31700
VLGAAKCIPFLRWPTLHLSILLSWWDADTLVRLLKALAELHLRSITITLKIGI	55700

Sequence	transcriptional activation domain activity
AWWIGLSGGLYGCITLMPIFFHDSPYYAPLSFTAWFLYMESFWYLPFLDLCYL	46000
AAKALCKLQEAILKTYGMPGLLCMLRGISFHIYAVLTCTMLHLVAITCPDPDI	32900
SPLPLLICSLPSLVNPLPLLPSTLALLPPPFILYYVLQYHVILFVFLVVFCFS	33200
TFVERVYTCLNYRIYKIKILGGTCALLIFVWYFPGFVLRNVLVGMLGHVVLSI	65400
KKGRRKENGEGGEEKGKGAGGRGEGEEAGRRSRIKGVGGKRRGAGRRRGRREG	17100
PFSHFVRMLLIYLPSLRLIVYYAFSFTLIMPFVLGYSVFMPSNWDTATFFFSY	61900
EREILWRAYLRLIKHVNSIFKIRIAYEWTEDYVIKYLWSAAGYCLISIPILFT	77100
HSSSPEDQERKRSKSRLRDAAAAGAAALGVNEYENRKDRKKRERRRERSERRY	24200
LFASMIPSMRDLIVIVLTLPNHATVIELQHYALEIAEQLTRFWFLRAENPLYR	62600
KDLKDGTRAPGDESERIVVEELDMERVALDRTLGRLWRSWKKRIRSPTEPSFG	34300
GFLLSYSLIRLSLTSHLLFGVFLLIQDIMLVLFSLYPTYPILLFSFLIFIGSF	35500
MHEYARVALFGTVGVPLRVFISPAFLRALRSFAPHVIHLVDPILLRMQAHIAL	48700
WLVKVYRLGPFSRDKRYGFAKLLGLKLNYDVKQVKQKPSFQLSMALALLNKCT	64500
MLDVILYLPCLLITYLCWAVWFLFIVFLCFLLCWFCFVIDGLFPFFFITFVFL	56100
QARQAQEPAMSQKDLATKVNEKQSVINDYESGRAVPNQQLLAKLERALGVKLR	51300
ITNGLYTGLGIKVPITKLQKYTPLEVALHSWRLVYMYFWSSFCLLIVCLIIFL	65800
LNWYFLGTFMYFLYGESIIYYFKHVLLVDRILLPLATHHRFISFMLYIIGFVF	74300
PLLACQVAYGFLVVFFSYSLIEEQVGCVIYYEHLVMLCWLVIIMPPNALLSTV	58700
STHRIRCRNAEEPGGRARCRLVVGRRAPAGARDEVPSHFSEEELVASVVGVVV	73000
MPPFLFSEGAFMFRICFFPLCLWWCLFLFFSFFLLLQFLSYGFAFSCGRYILF	65100
